Data reported in publication PMC13022406, “Amino acid and viral binding by the high-affinity Cationic Amino acid Transporter 1 (CAT1) from Mus musculus” (Nature Communications, 2026).

B1: Friend Murine Leukemia Virus receptor binding domain (domain or fragment, UniProt P03390 35-270, looked up)
chain: AAPGSSPHQVYNITWEVTNGDRETVWAISGNHPLWTWWPVLTPDLCMLALSGPPHWGLEYQAPYSSPPGPPCCSGSSGSSAGCSRDCDEPLTSLTPRCNTAWNRLKLDQVTHKSSEGFYVCPGSHRPREAKSCGGPDSFYCASWGCETTGRVYWKPSSSWDYITVDNNLTTSQAVQVCKDNKWCNPLAIQFTNAGKQVTSWTTGHYWGLRLYVSGRDPGLTFGIRLRYQNLGPRVP
modifications: N-linked glycans at Asn46 and Asn202
notes: the previously crystallized construct (PDB 1AOL); Residues 43-265 were built in the cryo-EM model; also called FrMLV-RBD; source: adherent HEK293T cells (lentiviral expression), secreted, purified (Ni-NTA, SEC)
B2: Cationic Amino acid Transporter 1 (CAT1) from Mus musculus, purified (receptor)
chain: not shown
modifications: N-linked glycans at Asn223 and Asn229

Columns and labels:
[1] = molecular target: B2; experiment: cryo-EM structure; MmCAT1:FrMLV-RBD complex purified by SEC in LMNG/CHS; apo and with 34 mM arginine, 20 mM lysine or 20 mM ornithine; settings: both partners purified
[2] = molecular target: B1; experiment: BLI; MmCAT1 (100 nM, twin-strep and GFP tag) loaded on Strep-Tactin XT probes (Gator Pivot); FrMLV-RBD at 2.7 uM, 900, 300, 100 and 33.3 nM; 25 mM HEPES pH 7.5, 125 mM NaCl, 0.003% LMNG, 0.0006% CHS; room temperature; 5 min association, 5 min dissociation; settings: both partners purified

B1
stoichiometry N [1]: 1

B2
Kd [2]: 9.7 nM
